Laboratory results: the supplement of paper PMC9170038

Tested on: MS2 coat protein
Experiment: apparent KD of MS2 coat protein; higher = weaker reporter binding
Conditions: Eterna round: R107
In short: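 Designed RNA switches were transcribed on-chip from Illumina sequencing clusters and titrated with SNAP-549-labelled MS2 coat protein in twofold steps from 0.7 or 1.5 nM up to 3 µM. Each step lasted 0.8–1.5 h at first and 10–20 min by the end, in 100 mM Tris-HCl pH 7.5, 80 mM KCl and 4 mM MgCl2, without or with constant ligand. Apparent KD is the median, for each design, of fits to normalised cluster binding curves.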

[1] = input ligand: theophylline 20 uM
[2] = input ligand: theophylline 2 mM
[3] = input ligand: tryptophan 2.4 mM

Sequence | apparent KD of MS2 coat protein (input ligand: arginine 13.2 mM) [nM] | apparent KD of MS2 coat protein (input ligand: none) [nM] | apparent KD of MS2 coat protein [1] [nM] | apparent KD of MS2 coat protein [2] [nM] | apparent KD of MS2 coat protein [3] [nM]
GCUAGCCGAAAGGCUAGCAAGGCUACAGAAGGAGCGUGCGAAAGCACAGGUAGGUCGCUGAGCUUGAGGAUCACCCAAGUUGCCU [SSAA - Alter Amptam #1 V+V2] | 26.2 | 66.7 | 57.2 | 48.6 | 64
ACAUGAAUAUCAUCUAUUUAUUGUACUGAAGGAGCGUCCAUGAGGACAGGUAGGUCGCAGUGUAAAACAUGAGGAUCACCCAUGU [Same State - Arginine A #1] | 22.6 | 22.2 | 36.6 | 29 | 23
AACUACUCGAGGUGAUCCUACGAGUGGCAACGAGGACCGGUACGGCCGCCACUCGAAUAAACAUGAGGAUCACCCAUGUACAAAU [T''-M'-T'-T-MS2 - Design 12] | 92.2 |  | 259 | 220 | 
UUCAAAGGGAACGGUGCUGGUAGCAGAGAUACCAGAGUAAUGAUACUCCCUUGGCAGCUCAGUACAUGAGGAUCACCCAUGUAAU [Exclusion Theophylline A GF24] | 13.8 | 13.5 | 20.2 | 15.9 | 15.1
CCUCCUUGUACGGCCGCCACUGCAUCUCUGGAUACUCCGAUAAUACAUGAGGAUCACCCAUGUUACAGGACCGGGUAUAUAUUAC [theeternabot_sameState_MS2_Trp_B_19] | 14.7 |  | 18.7 | 15.3 | 
GGGCUCGGAGUGCGGCGUGUUCCGCUCCGUCGAGGACCGGUACGGCCGCCACUCGACAUGAGGAUCACCCAUGUCCGAGCGCGCG [#1 Exclusion - Tryptophan A Attempt #6 (HarryS)] | 19.2 | 21.2 | 41.7 | 51.4 | 9.64
CCGUUUUAUGGCGACAUAGGGCGGACUGAAGGAGCGGUAUAAAAGCCAGGUAGGUCGCAGAGAUCCACAUGAGGAUCACCCAUGU [!0.aA] | 29.4 | 39.7 | 45.8 | 41 | 51
UCUUGGUCCGCAAGGACCGUGAGUUGCGAUACCAGCACGGUAACGUGCCCUUGGCAGCGCACAUGAGGAUCACCCAUGUGGUGUU [#1 Exclusion - Theophylline A Attempt #15 (HarryS)] | 71.6 |  | 520 |  | 210
CGAAUAUAGACGGCCGCCACUCUACAAACAUGAGGAUCACCCAUGUUCACAUAGUGGAAACACAUGAGGACCGGGUCAUAGGCAU [#18 Same State - Tryptophan B] | 19.2 |  | 25.4 | 21.3 | 
AGCACUGUGACGGCCGCCACUAUAUUAGGGUGGUCAGGUUCAUAAAUACAUGAGGAUCACCCAUGUAGGACCGGGUCUCAGUGCA [Omei Trp Exc B A v3] | 11.1 |  | 13.8 | 12.3 | 
ACCGGCACCUAGGAUACCAGAUCCACAACAAACAUGAGGAUCACCCAUGUAUAAAGUGGUAUCCCUUGGCAGCCUGUGACAAUCG [theeternabot_sameState_MS2_Theo_B_19] | 17 |  | 21.4 |  | 15.8
AGACAUGAGGAUCACCCAUGUAGUACGGAUACCAGAUCCAGAUGCGUCCCUUGGCAGCUGUAGUACAGCGUUACAUCGCUCGUAG [Exclusion - Theophylline A (Freestyle 24)] | 16.9 |  | 24.8 |  | 22.4
GGCAAAAGGUCGGCCGCCACUGUAGGAUGUGUUCUUUCACAUGAGGAUCACCCAUGUUGUUAUUAUAGGACCGGGAUUUUAGGAC [39MS split4] | 20.6 |  | 31.7 | 23.4 | 
AGAUUACAUGUUAUAAUACGGUAUACUGAUACCAGUGUUUCUAUUCACCCUUGGCAGCAGCAACAUGAGGAUCACCCAUGUAUUA [JR_SSTheophyA_Sub017] | 14.9 |  | 21.4 |  | 17.7
GGACUAACCAGAAGGAGCGGCACAAGCAGAAACUGCAAUCCUCCGCACGAGGAUCACCCGUGUCAGGUAGGUCGCUGGUUAGUCG [ArgBX 28] | 49.2 | 56.8 | 74.6 | 80.4 | 63.7
AUUAAGGAUAUGUAGAAGGCGGAGAAGAGACGAGGACCGGUACGGCCGCCACUCGUGUUAGUUAACAUGAGGAUCACCCAUGUAA [#06 Tryptophan A Same State] | 14.3 | 60.7 | 72.3 | 112 | 17.1
GUUAUGAUAAGAAGGAGCGUCGAAAAUGGGUAAACAUGAGGAUCACCCAUGUAAAGGGAACGACAGGUAGGUCGCUUAUUAUAAC [AstromonsSSArgB#20] | 86.8 | 190 | 270 | 161 | 154
AAUAAAUCGCCUGAUACCAGCGCUGGCGGACAUGAGGAUCACCCAUGUGUUACAGGCGGACGCCCUUGGCAGCGGAGCGGGAUCU [U-Shape] | 16.2 | 20.2 | 21.4 | 23 | 19.6
